Here are results for four molecules from PMC5322571, “Selection of DNA Aptamers for Ovarian Cancer Biomarker CA125 Using One-Pot SELEX and High-Throughput Sequencing”.

What all share (conditions): protein: commercial; label: 5' TEX615 (Texas Red) for FA; FAM for APCE; single strand
Data set [1] deals with T1, CA125 (Cancer Antigen 125, mucin glycoprotein) (human, UniProt Q8WXI7 1-14451). The data set is described as follows: fluorescence anisotropy; FA: 100 nM aptamer heat cycled in TGKM (25 mM Tris, 192 mM glycine, 5 mM KH2PO4, 1 mM MgCl2, pH 8.3), CA125 0-2000 U/mL in PBS, 0.13 mg/mL BSA, 90 min RT, read.
In data set [2] the target is T1, CA125 (Cancer Antigen 125, mucin …). Briefly: fluorescence anisotropy; heat cycled with Mg2+ (5 mM in Results; TGKM is 1 mM in Methods); FA: 100 nM aptamer heat cycled in TGKM (25 mM Tris, 192 mM glycine, 5 mM KH2PO4, 1 mM MgCl2, pH 8.3), CA125 0-2000 U/mL in PBS, 0.13 mg/mL BSA, 90 min RT, read. Background: Polarisation of emitted light reports the rotation of a fluorescent probe.

Data set [3] shares this target. The data set is described as follows: affinity probe capillary electrophoresis; TGKM (1 mM Mg2+); FA: 100 nM aptamer heat cycled in TGKM (25 mM Tris, 192 mM glycine, 5 mM KH2PO4, 1 mM MgCl2, pH 8.3), CA125 0-2000 U/mL in PBS, 0.13 mg/mL BSA, 90 min RT, read.
The target is the same in data set [4]. The data set is described as follows: fluorescence anisotropy; heat cycled in PBS without Mg2+; FA: 100 nM aptamer heat cycled in TGKM (25 mM Tris, 192 mM glycine, 5 mM KH2PO4, 1 mM MgCl2, pH 8.3), CA125 0-2000 U/mL in PBS, 0.13 mg/mL BSA, 90 min RT, read.
Data set [5] has the same target. The data set is described as follows: affinity probe capillary electrophoresis; heat cycled in TE without Mg2+; TGK run buffer; FA: 100 nM aptamer heat cycled in TGKM (25 mM Tris, 192 mM glycine, 5 mM KH2PO4, 1 mM MgCl2, pH 8.3), CA125 0-2000 U/mL in PBS, 0.13 mg/mL BSA, 90 min RT, read.

Turning to TTCAATATTACTTATCTTTTTTTTT (ssDNA) [CA125_3 (without primer regions)], the binding result in data set [1] is “no binding”.

Take ACTAGCTCCGATCTTTCTTATCTAC (ssDNA) [CA125_1 (CA125_1_NP, without primer regions)]: the Kd in data set [2] worked out at 207 ± 109 U/mL; in data set [3], 80 ± 38 U/mL.

Take CACTCTTTCATTTTATTTATAATTAT (ssDNA) [CA125_2 (without primer regions)]: the binding result in data set [1] is listed as “no binding”.

For the molecule TGCCTTATTACTCTCTCCTGTTAAC (ssDNA) [CA125_12 (CA125_12_NP, without primer regions)], the Kd in data set [4] stood at 118 ± 123 U/mL; in data set [5] it was 131 ± 93 U/mL.
